The assay deals with recombinant FLIP DED1/2 (amino acids 1–184) with a C‐terminal His‐tag (UniProt O15519 1-184). Put plainly: AlphaScreen or HTRF; cell-free AlphaScreen: FLIP DED1/2-His on nickel chelate acceptor beads, GST-FADD DED on glutathione donor beads; 25 mM Tris pH 7.5, 300 mM NaCl, 0.0007% Tween-20, 0.05% BSA; room temperature; 25 μl in 384-well plate. To be noted: both partners purified. Background: Alpha assays give light when donor and acceptor beads are brought close together.

B1: recombinant FADD DED (amino acids 1–90) with an N‐terminal GST‐tag (domain or fragment)
chain: MDPFLVLLHSVSSSLSSSELTELKFLCLGRVGKRKLERVQSGLDLFSMLLEQNDLEPGHTELLRELLASLRRHDLLRRVDDFEAGAAAGA
notes: FADD, death effector domain, amino acids 1-90; Held by glutathione donor beads in the AlphaScreen; source: recombinant; not shown: GST, N-terminal, kept
For B1, the binding result was “binds”.

For the origin of these results see paper PMC7054686, “A revised model of TRAIL‐R2 DISC assembly explains how FLIP(L) can inhibit or promote apoptosis” (EMBO Reports, 2020).
